In publication doi:10.1101/2022.07.30.502139 one finds %AB-FRET (donor dequenching) data, which are given here for one molecule.

In the test the target is OTLD1-RFP (Arabidopsis). The test can be described thus: FRET or BRET. (Bioluminescence resonance energy transfer reports proximity on the nanometre scale.)

B1: LSH10-GFP (natural protein)
chain: MSSPRERGKSLMESSGSEPPVTPSRYESQKRRDWNTFGQYLKNQRPPVPMSHCSCNHVLDFLRYLDQFGKTKVHVPGCMFYGQPEPPAPCTCPLRQAWGSLDALIGRLRAAYEENGGPPETNPFASGAIRVYLREVRECQAKARGIPYKKKKKKKPTPEMGGGREDSSSSSSSFSFS
As to B1, the %AB-FRET (donor dequenching) worked out at 13%.
